In publication PMC6422896, “CrgA Protein Represses AlkB2 Monooxygenase and Regulates the Degradation of Medium-to-Long-Chain n-Alkanes in Pseudomonas aeruginosa SJTD-1” (Frontiers in Microbiology, 2019):

T1: CrgA (Pseudomonas aeruginosa SJTD-1, UniProt Q9I4D7 1-304)
T1 sequence: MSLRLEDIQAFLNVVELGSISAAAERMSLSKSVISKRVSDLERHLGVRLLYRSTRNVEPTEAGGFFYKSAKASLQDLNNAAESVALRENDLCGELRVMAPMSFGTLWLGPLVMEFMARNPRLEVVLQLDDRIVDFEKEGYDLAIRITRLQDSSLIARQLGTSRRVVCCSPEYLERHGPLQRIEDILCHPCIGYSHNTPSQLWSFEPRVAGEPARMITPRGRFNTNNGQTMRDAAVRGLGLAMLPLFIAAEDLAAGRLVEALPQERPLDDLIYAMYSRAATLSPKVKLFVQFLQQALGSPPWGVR


These binders were tested against T1, CrgA (assay: EMSA; EMSA: 20 mM Tris-HCl, 50 mM NaCl, 1 mM DTT, 0.1 mM EDTA, pH 7.5, 37 C 30 min, 4 pmol DNA in 20 uL, 8% native PAGE; footprinting at 25 C). Settings: protein: recombinant; tags: His-tag (pET28a, Ni-NTA; NdeI/BamHI cloning, N-terminal tag likely); chain copies: 4; label: 5'-FAM on strand 2; blunt.

Binder | binding result
alkB2-U46 (dsDNA) DNA 1: AGGACAATTGTCAGACAATCTAACAAGATAAATACGAGGACTTCCC DNA 2: GGGAAGTCCTCGTATTTATCTTGTTAGATTGTCTGACAATTGTCCT | no binding
alkB2-b1 (dsDNA) DNA 1: AGGACAATTGTCAGACAATCTAACAGGGATGGGGCAGGCCGGCCAAGGGAGATAAATACGAGGACTTCCC DNA 2: GGGAAGTCCTCGTATTTATCTCCCTTGGCCGGCCTGCCCCATCCCTGTTAGATTGTCTGACAATTGTCCT | binds
alkB2-b2 (dsDNA) DNA 1: AGGACAATTGTCAGACAATCTAACAAGCGGCGGACAGAACGAAGATAAATACGAGGACTTCCC DNA 2: GGGAAGTCCTCGTATTTATCTTCGTTCTGTCCGCCGCTTGTTAGATTGTCTGACAATTGTCCT | binds
